T1: PIF3-GST (Arabidopsis thaliana, UniProt O80536 1-524)
T1 sequence: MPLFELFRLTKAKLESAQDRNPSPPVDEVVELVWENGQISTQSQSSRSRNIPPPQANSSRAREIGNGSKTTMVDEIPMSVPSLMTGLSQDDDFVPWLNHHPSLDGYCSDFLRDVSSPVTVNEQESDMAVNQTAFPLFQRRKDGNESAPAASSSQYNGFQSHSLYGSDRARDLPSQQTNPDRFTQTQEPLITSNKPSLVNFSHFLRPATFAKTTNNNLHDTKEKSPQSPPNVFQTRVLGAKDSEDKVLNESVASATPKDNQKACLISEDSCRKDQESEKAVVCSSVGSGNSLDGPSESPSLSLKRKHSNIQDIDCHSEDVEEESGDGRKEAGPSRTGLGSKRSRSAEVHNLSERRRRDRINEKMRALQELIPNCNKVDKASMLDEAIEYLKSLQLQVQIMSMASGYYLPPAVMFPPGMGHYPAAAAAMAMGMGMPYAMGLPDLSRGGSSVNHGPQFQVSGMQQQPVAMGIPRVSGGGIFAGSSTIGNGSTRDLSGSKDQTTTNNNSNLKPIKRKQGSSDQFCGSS


Target: T1, PIF3-GST
Assay: EMSA

Binder | binding result
PIEZO promoter probe 1 (dsDNA) DNA 1: CCTAGAACTAAACACATGAGCCTCCTTCTT DNA 2: AAGAAGGAGGCTCATGTGTTTAGTTCTAGG | binds
PIEZO promoter probe 2 (dsDNA) DNA 1: ATCCAAATGGACCACATGCCCATCAACCTCCAT DNA 2: ATGGAGGTTGATGGGCATGTGGTCCATTTGGAT | binds
